{"source": "paper PMC10806198", "about": "“Effects of OxyR regulator on oxidative stress, Apx toxin secretion and virulence of Actinobacillus pleuropneumoniae”", "binders": {"B1": {"name": "apxIBD promoter probe (ApxIBDp) (dsDNA)", "DNA 1": "ATGATAAATAGCAATCCTATATATATTAGGTGTGTAGGAT", "DNA 2": "ATCCTACACACCTAATATATATAGGATTGCTATTTATCAT"}, "B2": {"name": "catalase promoter probe (05430p) (dsDNA)", "DNA 1": "ATAATAATATATCCATACACAAAACCTATTAACATTCCAA", "DNA 2": "TTGGAATGTTAATAGGTTTTGTGTATGGATATATTATTAT"}, "B3": {"name": "oxyR promoter probe (oxyRp) (dsDNA)", "DNA 1": "GAACGTACCAGCCGTAAGGTATTATTTACCCAAGCCGGTT", "DNA 2": "AACCGGCTTGGGTAAATAATACCTTACGGCTGGTACGTTC"}}, "target": "T1, OxyR (rOxyR) (Actinobacillus pleuropneumoniae 4074 …, UniProt A0ABM6X4Q0 1-297)", "T1 sequence": "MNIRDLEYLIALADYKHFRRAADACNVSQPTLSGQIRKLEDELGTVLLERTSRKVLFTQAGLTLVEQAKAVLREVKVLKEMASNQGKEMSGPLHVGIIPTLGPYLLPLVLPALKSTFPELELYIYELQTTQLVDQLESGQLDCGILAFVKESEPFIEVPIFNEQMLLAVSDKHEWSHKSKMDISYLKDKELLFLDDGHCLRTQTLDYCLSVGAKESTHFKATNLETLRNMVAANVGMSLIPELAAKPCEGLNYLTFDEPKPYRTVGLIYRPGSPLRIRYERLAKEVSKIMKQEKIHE", "test": "EMSA; dose-dependent; abolished by excess unlabeled probe; Lightshift EMSA binding buffer (composition and pH not given), 0.5 ul poly[d(I-C)], 10 ul, 25 C 30 min; 5% native PAGE in 0.5x TBE", "conditions": "protein: recombinant; tags: His (pET28a NdeI/XhoI, HisTrap purified); chain copies: 4; label: biotin 3'-end; blunt", "data": [{"binder": "B1", "values": [{"measurement": "binding result", "result": "binds"}]}, {"binder": "B2", "values": [{"measurement": "binding result", "result": "binds"}]}, {"binder": "B3", "values": [{"measurement": "binding result", "result": "binds"}]}]}
